Source: IntAct's records for PubMed 16868027

B1: Disintegrin and metalloproteinase domain-containing protein 22 (Homo sapiens), Q9P0K1-3 (parent)
chain: MQAAVAVSVPFLLLCVLGTCPPARCGQAGDASLMELEKRKENRFVERQSIVPLRLIYRSGGEDESRHDALDTRVRGDLGGPQLTHVDQASFQVDAFGTSFILDVVLNHDLLSSEYIERHIEHGGKTVEVKGGEHCYYQGHIRGNPDSFVALSTCHGLHGMFYDGNHTYLIEPEENDTTQEDFHFHSVYKSRLFEFSLDDLPSEFQQVNITPSKFILKPRPKRSKRQLRRYPRNVEEETKYIELMIVNDHLMFKKHRLSVVHTNTYAKSVVNMADLIYKDQLKTRIVLVAMETWATDNKFAISENPLITLREFMKYRRDFIKEKSDAVHLFSGSQFESSRSGAAYIGGICSLLKGGGVNEFGKTDLMAVTLAQSLAHNIGIISDKRKLASGECKCEDTWSGCIMGDTGYYLPKKFTQCNIEEYHDFLNSGGGACLFNKPSKLLDPPECGNGFIETGEECDCGTPAECVLEGAECCKKCTLTQDSQCSDGLCCKKCKFQPMGTVCREAVNDCDIRETCSGNSSQCAPNIHKMDGYSCDGVQGICFGGRCKTRDRQCKYIWGQKVTASDKYCYEKLNIEGTEKGNCGKDKDTWIQCNKRDVLCGYLLCTNIGNIPRLGELDGEITSTLVVQQGRTLNCSGGHVKLEEDVDLGYVEDGTPCGPQMMCLEHRCLPVASFNFSTCLSSKEGTICSGNGVCSNELKCVCNRHWIGSDCNTYFPHNDDAKTGITLSGNGVAGTNIIIGIIAGTILVLALILGITAWGYKNYREQRQLPQGDYVKKPGDGDSFYSDIPPGVSTNSASSSKKRSNGLSHSWSERIPDTKHISDICENGRPRSNSWQGNLGGNKKKIRGKRFRPRSNSTE
B2: Disintegrin and metalloproteinase domain-containing protein 22 (Homo sapiens), Q9P0K1-1 (parent)
chain: MQAAVAVSVPFLLLCVLGTCPPARCGQAGDASLMELEKRKENRFVERQSIVPLRLIYRSGGEDESRHDALDTRVRGDLGGPQLTHVDQASFQVDAFGTSFILDVVLNHDLLSSEYIERHIEHGGKTVEVKGGEHCYYQGHIRGNPDSFVALSTCHGLHGMFYDGNHTYLIEPEENDTTQEDFHFHSVYKSRLFEFSLDDLPSEFQQVNITPSKFILKPRPKRSKRQLRRYPRNVEEETKYIELMIVNDHLMFKKHRLSVVHTNTYAKSVVNMADLIYKDQLKTRIVLVAMETWATDNKFAISENPLITLREFMKYRRDFIKEKSDAVHLFSGSQFESSRSGAAYIGGICSLLKGGGVNEFGKTDLMAVTLAQSLAHNIGIISDKRKLASGECKCEDTWSGCIMGDTGYYLPKKFTQCNIEEYHDFLNSGGGACLFNKPSKLLDPPECGNGFIETGEECDCGTPAECVLEGAECCKKCTLTQDSQCSDGLCCKKCKFQPMGTVCREAVNDCDIRETCSGNSSQCAPNIHKMDGYSCDGVQGICFGGRCKTRDRQCKYIWGQKVTASDKYCYEKLNIEGTEKGNCGKDKDTWIQCNKRDVLCGYLLCTNIGNIPRLGELDGEITSTLVVQQGRTLNCSGGHVKLEEDVDLGYVEDGTPCGPQMMCLEHRCLPVASFNFSTCLSSKEGTICSGNGVCSNELKCVCNRHWIGSDCNTYFPHNDDAKTGITLSGNGVAGTNIIIGIIAGTILVLALILGITAWGYKNYREQRQLPQGDYVKKPGDGDSFYSDIPPGVSTNSASSSKKRSNGLSHSWSERIPDTKHISDICENGRPRSNSWQGNLGGNKKKIRGKRFRPRSNSTETLSPAKSPSSSTGSIASSRKYPYPMPPLPDEDKKVNRQSARLWETSI
B3: Disintegrin and metalloproteinase domain-containing protein 22 (Homo sapiens), Q9P0K1-1 (parent)
chain: B2 chain
partner: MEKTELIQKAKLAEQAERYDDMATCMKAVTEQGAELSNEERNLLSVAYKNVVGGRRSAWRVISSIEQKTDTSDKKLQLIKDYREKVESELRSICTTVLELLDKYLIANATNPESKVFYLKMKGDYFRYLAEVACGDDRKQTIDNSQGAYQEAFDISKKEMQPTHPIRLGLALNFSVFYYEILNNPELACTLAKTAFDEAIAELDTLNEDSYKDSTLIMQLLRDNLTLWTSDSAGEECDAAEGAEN

Variants of: B1
Conditions: with 1433b_human YWHAB

effect of a mutation on the interaction | Variant
disrupting interaction | R831Q;S832G;R854Q;S855A
decreasing interaction | R831Q;S832G
decreasing interaction | R854Q;S855A

Variants of: B1
Conditions: with 1433z_human YWHAZ

effect of a mutation on the interaction | Variant
disrupting interaction | R831Q;S832G;R854Q;S855A
decreasing interaction | R831Q;S832G

Variants of: B2
Conditions: with 1433z_human YWHAZ

effect of a mutation on the interaction | Variant
disrupting interaction | R831Q;S832G;R854Q;S855A

Variants of: B2
Conditions: with 1433b_human YWHAB

effect of a mutation on the interaction | Variant
disrupting interaction | R831Q;S832G;R854Q;S855A

Variants of: B3
Conditions: with 1433t_human YWHAQ

effect of a mutation on the interaction | Variant
disrupting interaction | R831Q;S832G;R854Q;S855A
